3 sequences from the supplement of paper PMC6379048 can be followed below.

What all share (experiment): Kd (EC50 corrected by depletion factor)
The target in data set [1] is T1, GPALPP1 (UniProt Q8IXQ4).
T1 sequence: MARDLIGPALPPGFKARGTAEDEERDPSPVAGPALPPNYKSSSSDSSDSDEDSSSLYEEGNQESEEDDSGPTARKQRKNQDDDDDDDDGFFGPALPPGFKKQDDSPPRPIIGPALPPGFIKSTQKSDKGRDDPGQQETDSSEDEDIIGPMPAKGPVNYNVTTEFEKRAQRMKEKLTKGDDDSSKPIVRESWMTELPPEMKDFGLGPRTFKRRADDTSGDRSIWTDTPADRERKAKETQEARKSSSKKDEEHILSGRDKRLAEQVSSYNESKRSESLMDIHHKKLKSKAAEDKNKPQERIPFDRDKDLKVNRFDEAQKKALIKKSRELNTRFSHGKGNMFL
The gist of the method: (§1)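 To obtain EC50, data were fitted with a four-parameter log-logistic model; Kd was then EC50 multiplied by a protein-dependent depletion factor. Beforehand, free RNA oligos (0 nM to 30 μM) were pre-incubated with HEK293-FT lysate (2.5 mg protein/well) for 1 h at 4°C. The lysate then spent 30 min at 4°C with the same 5′-amino-C6 oligos coupled to NHS-Sepharose beads, and bound proteins were quantified by label-free LC-MS/MS, normalised to the control.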

Data set [2] has as its target T2, RBM14 (UniProt Q96PK6).
T2 sequence: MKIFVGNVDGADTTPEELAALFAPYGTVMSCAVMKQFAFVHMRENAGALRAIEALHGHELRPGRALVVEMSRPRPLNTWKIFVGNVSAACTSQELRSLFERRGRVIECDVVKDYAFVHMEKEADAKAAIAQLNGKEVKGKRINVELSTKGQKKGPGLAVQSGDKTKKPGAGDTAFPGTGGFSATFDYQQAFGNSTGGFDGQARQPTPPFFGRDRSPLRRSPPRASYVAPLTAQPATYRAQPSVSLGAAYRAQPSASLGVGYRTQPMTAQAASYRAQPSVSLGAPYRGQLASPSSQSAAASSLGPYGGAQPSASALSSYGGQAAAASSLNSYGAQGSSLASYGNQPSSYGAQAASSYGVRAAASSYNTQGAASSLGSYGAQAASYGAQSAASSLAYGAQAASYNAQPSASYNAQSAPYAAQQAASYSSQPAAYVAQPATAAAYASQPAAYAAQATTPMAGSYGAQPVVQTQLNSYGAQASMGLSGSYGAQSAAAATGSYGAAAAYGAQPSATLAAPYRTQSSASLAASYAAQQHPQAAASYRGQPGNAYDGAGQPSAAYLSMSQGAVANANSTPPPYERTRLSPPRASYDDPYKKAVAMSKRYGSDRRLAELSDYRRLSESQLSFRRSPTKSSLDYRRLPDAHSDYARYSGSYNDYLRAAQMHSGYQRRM
The procedure, abridged: as §1

The target in data set [3] is T3, SRSF11 (UniProt Q05519).
T3 sequence: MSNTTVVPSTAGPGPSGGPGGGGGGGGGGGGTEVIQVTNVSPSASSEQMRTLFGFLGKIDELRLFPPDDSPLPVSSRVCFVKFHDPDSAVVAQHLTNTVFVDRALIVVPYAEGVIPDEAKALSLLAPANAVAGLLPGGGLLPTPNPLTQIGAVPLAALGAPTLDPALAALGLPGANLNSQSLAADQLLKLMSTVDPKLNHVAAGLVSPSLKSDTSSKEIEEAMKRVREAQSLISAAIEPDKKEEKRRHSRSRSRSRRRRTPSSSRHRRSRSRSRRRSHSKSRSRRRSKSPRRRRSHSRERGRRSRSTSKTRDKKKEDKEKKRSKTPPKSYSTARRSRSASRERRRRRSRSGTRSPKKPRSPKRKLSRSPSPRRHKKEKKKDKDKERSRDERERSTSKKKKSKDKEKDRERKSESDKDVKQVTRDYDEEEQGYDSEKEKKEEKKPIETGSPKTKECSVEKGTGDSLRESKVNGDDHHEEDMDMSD
The gist of the method: as §1

In data set [4] the target is HSP90AB2P (UniProt Q58FF8). The procedure, abridged: as §1
Data set [5] addresses MRPL50 (UniProt Q8N5N7). The procedure, abridged: as §1
In data set [6] the target is SRSF6 (UniProt Q13247). The gist of the method: as §1
Data set [7] concerns the target HNRNPA1 (UniProt P09651). The procedure, abridged:
as §1

The target in data set [8] is HNRNPA2B1 (UniProt P22626). The gist of the method: as §1
Data set [9] addresses MRPS23 (UniProt Q9Y3D9). The procedure, abridged:
as §1

Data set [10] deals with T4, LSM8 (UniProt O95777).
T4 sequence: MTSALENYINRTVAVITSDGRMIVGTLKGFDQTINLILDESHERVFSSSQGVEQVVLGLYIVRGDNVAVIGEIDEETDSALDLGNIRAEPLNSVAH
The procedure, abridged:
as §1

The target in data set [11] is T5, GRSF1 (UniProt Q12849).
T5 sequence: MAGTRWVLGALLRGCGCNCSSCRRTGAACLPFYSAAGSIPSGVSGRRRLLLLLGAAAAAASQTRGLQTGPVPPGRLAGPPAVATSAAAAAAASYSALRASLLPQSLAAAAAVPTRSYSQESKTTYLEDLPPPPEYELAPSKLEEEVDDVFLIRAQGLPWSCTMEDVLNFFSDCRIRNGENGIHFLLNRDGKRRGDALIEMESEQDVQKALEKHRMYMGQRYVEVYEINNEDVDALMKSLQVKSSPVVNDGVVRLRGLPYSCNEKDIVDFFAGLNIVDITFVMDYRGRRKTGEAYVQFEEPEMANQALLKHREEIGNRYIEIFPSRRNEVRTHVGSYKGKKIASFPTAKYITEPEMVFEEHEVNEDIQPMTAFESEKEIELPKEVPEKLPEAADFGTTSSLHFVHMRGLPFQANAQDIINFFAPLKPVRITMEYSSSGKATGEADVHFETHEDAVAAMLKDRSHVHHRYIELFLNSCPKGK
The gist of the method: as §1

For data set [12], the target named is MRPS9 (UniProt P82933). The procedure, abridged: as §1
Data set [13] addresses MRPS26 (UniProt Q9BYN8). The procedure, abridged:
as §1

Chain of SRSF6 (Q13247 whole entry, looked up): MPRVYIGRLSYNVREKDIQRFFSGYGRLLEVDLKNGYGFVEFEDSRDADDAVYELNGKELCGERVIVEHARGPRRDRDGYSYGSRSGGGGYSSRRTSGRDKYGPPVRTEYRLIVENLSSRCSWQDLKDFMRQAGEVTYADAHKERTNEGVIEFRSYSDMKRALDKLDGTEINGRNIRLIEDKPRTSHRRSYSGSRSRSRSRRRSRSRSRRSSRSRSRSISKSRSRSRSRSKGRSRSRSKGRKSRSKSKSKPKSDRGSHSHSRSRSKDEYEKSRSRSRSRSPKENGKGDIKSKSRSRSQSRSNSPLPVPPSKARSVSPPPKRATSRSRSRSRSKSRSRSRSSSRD
Chain of HSP90AB2P (Q58FF8 whole entry): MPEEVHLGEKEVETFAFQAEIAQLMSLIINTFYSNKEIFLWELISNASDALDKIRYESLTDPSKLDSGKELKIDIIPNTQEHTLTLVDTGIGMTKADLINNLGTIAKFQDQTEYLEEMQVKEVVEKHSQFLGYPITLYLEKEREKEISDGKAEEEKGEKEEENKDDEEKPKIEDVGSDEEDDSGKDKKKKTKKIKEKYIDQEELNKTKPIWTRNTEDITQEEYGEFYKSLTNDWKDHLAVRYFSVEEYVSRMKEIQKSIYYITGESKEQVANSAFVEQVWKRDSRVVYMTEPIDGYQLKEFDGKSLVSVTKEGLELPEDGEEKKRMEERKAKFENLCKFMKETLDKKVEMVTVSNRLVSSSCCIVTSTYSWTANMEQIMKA
Chain of HNRNPA2B1 (P22626 whole entry): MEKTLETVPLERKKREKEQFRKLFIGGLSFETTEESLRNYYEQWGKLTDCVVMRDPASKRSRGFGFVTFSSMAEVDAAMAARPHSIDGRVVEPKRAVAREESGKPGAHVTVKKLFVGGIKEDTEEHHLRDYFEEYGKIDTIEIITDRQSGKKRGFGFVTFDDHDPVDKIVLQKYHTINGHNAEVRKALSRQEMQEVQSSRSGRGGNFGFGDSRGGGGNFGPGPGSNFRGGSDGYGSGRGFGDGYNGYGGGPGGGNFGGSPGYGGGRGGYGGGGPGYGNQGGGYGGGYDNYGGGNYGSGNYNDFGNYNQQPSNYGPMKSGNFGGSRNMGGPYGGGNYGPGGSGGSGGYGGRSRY
Chain of HNRNPA1 (P09651 whole entry): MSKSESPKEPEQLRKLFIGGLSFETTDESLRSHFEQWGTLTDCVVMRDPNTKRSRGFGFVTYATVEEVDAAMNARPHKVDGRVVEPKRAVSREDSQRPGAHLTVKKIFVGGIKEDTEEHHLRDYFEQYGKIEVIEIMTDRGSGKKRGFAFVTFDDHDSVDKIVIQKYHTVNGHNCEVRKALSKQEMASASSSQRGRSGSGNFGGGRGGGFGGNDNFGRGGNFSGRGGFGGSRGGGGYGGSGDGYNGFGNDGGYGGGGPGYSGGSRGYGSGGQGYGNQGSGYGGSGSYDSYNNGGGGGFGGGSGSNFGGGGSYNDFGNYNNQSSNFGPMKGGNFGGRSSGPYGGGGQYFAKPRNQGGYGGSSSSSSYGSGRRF

In the case of AAUAAA, the Kd in data set [1] was 33 nM; in [2] it was 600 nM; in data set [3], 126 nM; in data set [4], 108 nM.

Regarding CUGUCCU, the Kd in data set [5] stood at 149 nM; in data set [6] it was 287 nM.

For UAUUUAU, the dissociation constant Kd in data set [7] worked out at 1960 nM; in [8] it was 4900 nM; in [9], 15.6 nM; in data set [10], 2230 nM; in data set [11] it was 3420 nM; in data set [12], 27.1 nM. Also, the Kd in [13] worked out at 15.9 nM.

As a reminder, the Kd is the concentration at which binding is half-saturated.
